In article PMC2873993, “Comparative Therapeutic Effects of Velaglucerase Alfa and Imiglucerase in a Gaucher Disease Mouse Model” (PLoS ONE, 2010):
Where a chain is given by its changes, count along the chain named.

B1: velaglucerase alfa (protein)
chain: ARPCIPKSFGYSSVVCVCNATYCDSFDPPTFPALGTFSRYESTRSGRRMELSMGPIQANHTGTGLLLTLQPEQKFQKVKGFGGAMTDAAALNILALSPPAQNLLLKSYFSEEGIGYNIIRVPMASCDFSIRTYTYADTPDDFQLHNFSLPEEDTKLKIPLIHRALQLAQRPVSLLASPWTSPTWLKTNGAVNGKGSLKGQPGDIYHQTWARYFVKFLDAYAEHKLQFWAVTAENEPSAGLLSGYPFQCLGFTPEHQRDFIARDLGPTLANSTHHNVRLLMLDDQRLLLPHWAKVVLTDPEAAKYVHGIAVHWYLDFLAPAKATLGETHRLFPNTMLFASEACVGSKFWEQSVRLGSWDRGMQYSHSIITNLLYHVVGWTDWNLALNPEGGPNWVRNFVDSPIIVDITKDTFYKQPMFYHLGHFSKFIPEGSQRVGLVASQKNDLDAVALMHPDGSAVVVVLNRSSKDVPLTIKDPAVGFLETISPGYSIHTYLWRRQ
modifications: N-linked oligosaccharides with higher α-mannosyl content (predominant number of mannoses is 9)
B2: imiglucerase (protein)
chain: B1 chain with R495H
modifications: short N-linked oligosaccharide chains with ~3 exposed α-mannosyl residues

Tests used:
[1] = tested on: 9 V/null mice; assay: Storage cell quantification in liver and lung; assay type: in vivo, mouse; details: for numbers of storage cells in lungs (CD68): any dose
Text: (§1) Mice were sacrificed one week after the last injection, and sera and organs were collected for serologic studies, GCase activities, GC levels, and quantification of storage cells. At one week after the last injection, the GCase activities in liver, spleen, and lung had returned to background levels (not shown).
(§2) Mice were anesthetized with isoflurane.
Duplicate tissue sections were fixed in 10% formalin for hematoxylin and eosin (H&E) staining and in 4% paraformaldehyde-PBS, pH 7.4 for immunohistochemistry with CD68 antibody and examined using a Zeiss microscope equipped with SPOT Advance software (SPOT Diagnostic Instruments, Inc.). […] Mice (n = 6–14) in the Vela-, Imig-, or saline-treated groups were used, and the resultant data were analyzed using the Student's t-test.

[2] = biological target: T1, saposin C (Homo sapiens, UniProt P07602); assay: Activation of GCase by saposin C in detergent-free system; assay type: biochemical; details: for saposin C concentration of maximum activation: in the presence of 0.5 µM BPS; for increase of activity with saposin C: saposin C 0 to 500 nM, detergent-free
T1 construct: Saposin C was expressed in E. coli and purified as described [40]; made in house; host or cells: E. coli
T1 sequence (P07602 311-390 limits assumed): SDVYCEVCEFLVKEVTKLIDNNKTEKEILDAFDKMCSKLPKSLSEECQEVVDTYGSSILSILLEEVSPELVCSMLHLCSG
Experimental: (§3) Activation of Vela and Imig by the negatively charged lipid, BPS, and saposin C was determined in a detergent-free system with varying concentrations of either agent. The activities of both enzymes increased by 5- to 6-fold or 15- to 17-fold with saposin C (0 to 500 nM) or BPS (0 to 2 µM), respectively. […] Similarly, in the absence of saposin C, both enzymes reacted maximal activation with 0.5 µM of BPS. No significant differences were found in these responses (p = 0.5875–0.8473).
(§4) Vela and Imig were compared for kinetic properties as described. Briefly, the standard GCase activity assay contained final concentrations of 50 mM citrate/phosphate, pH 5.5, 0.25% TC, 0.25% TX, and 4 mM 4MU-Glc in 200 µl. The reactions were stopped after incubation (30–60 min, 37°C) using 0.9 M ethylenediamine, pH 11.0 (100 µl). Standard curves for 4-MU fluorescence yield were generated for each assay with Ex/Em 460/515 nm (Molecular Dynamics SpectraMax GeminXS spectrofluorometer). […] For the reversible competitive inhibitors, Ki was calculated from IC50 = Ki (1+ [I]/[Km]). The IC50 or Ki values for various inhibitors (dNM and its derivatives, CBE, CS, IFG, DNPFG) were determined using 4MU-Glc as substrate. Activities with the NBD-GC substrate were as described. Enzyme assays with saposin C (0–500 nM/0.5 µM BPS) and BPS (0–2 µM) were as described, [40]. Saposin C was expressed in E. coli and purified as described. For thermostability assessments, equal amounts of Vela and Imig activities were added to 50 mM citrate/phosphate, pH 7.4, with or without human/mouse serum, and incubated for 0–240 min at 25 or 37°C. The pH optimum profiles were developed using 50 mM citrate/phosphate, pH 4.4–7.2. Protease susceptibilities of the two GCases were evaluated by cathepsin D (1–2 µM) digestion in 25 mM sodium acetate, pH 4.8, 50 mM NaCl, 1.25 mM EDTA, 1.25 mM DTT using 200 ng of Vela or Imig at 37°C for 4 h. All assays were conducted in triplicate and repeated at least twice. The amounts of intact enzyme were determined from density measurements on immunoblots and were compared to the initial amounts. The ratios of intact enzyme with and without cathepsin D were used as indicators of the enzyme's proteolytic susceptibility.

[3] = pH- and thermostability of enzyme activity in buffer or serum; assay type: physicochemical; details: for irreversible loss of activity by 2 h / loss of activity by 4 h: pH 7.4, citrate/phosphate buffer or mouse or human serum, 37 or 25°C
Experimental: as §4

[4] = Activation of GCase by BPS in detergent-free system; assay type: biochemical; details: for increase of activity with BPS: BPS 0 to 2 µM, detergent-free; for BPS concentration of maximal activation: in the absence of saposin C
Experimental: as §3, §4

[5] = tested on: 9 V/null mice; assay: GC levels in liver, spleen and lung after weekly enzyme injections; assay type: in vivo, mouse; details: for GC lipid levels in lung: 5 and 15 U/kg/wk; for reduction of GC levels in liver: 15 U/kg/wk (before 8 wks); for decrease of GC in lung (suggested trend): variable; for reduction of GC levels in spleen: all three dosing groups; for reduction of GC levels and storage cell numbers in livers / reduction of GC levels and storage cell numbers in spleens: dose dependent, 5, 15 or 60 U/kg/wk, abstract
Text: as §1, §2
GC levels in liver, lung, and spleen from 9 V/null and WT mice were quantified by LC/MS-MS (Lipidomic Core, University of South Carolina). The GC levels were normalized to protein in the same lysates used for GCase activity and expressed as the percentage change relative to the GC levels of matched samples from saline-injected mice. WT lysates were used as a reference. The Student's t-test was used for statistical comparisons.

[6] = GCase activity assay with 4MU-Glc substrate; assay type: biochemical; details: for GCase activity, 4MU-Glc: mean ± SE; for GCase activity, 4MU-Glc / Km: n = 6
Experimental: as §4

[7] = GCase activity assay with NBD-GC substrate; assay type: biochemical; details: mean ± SE, n = 10
Experimental: as §4, with “For thermostability assessments, equal amounts of Vela and Imig activities were added to 50 mM citrate/phosphate, pH 7.4, with or without human/mouse serum, and incubated for 0–240 min at 25 or 37°C. The pH optimum profiles were developed using 50 mM citrate/phosphate, pH 4.4–7.2.” left out, “All assays were conducted in triplicate and repeated at least twice.” left out, “The ratios of intact enzyme with and without cathepsin D were used as indicators of the enzyme's proteolytic susceptibility.” left out

[8] = Quantification of functional active sites with single turnover substrate DNPFG; assay type: biochemical; details: for Active sites, 2,4-DNPFG: mole ratio of 2,4-DNP released and enzyme protein, mean ± SE, n = 8
Experimental: Catalytic activities of Vela and Imig were analyzed with 4MU-Glc and GC substrates. Vela had ∼6–10% reproducibly greater activity compared to Imig (Table 1). The functional active sites of these two enzymes were quantified using the single turnover substrate DNPFG, and consistent with the hydrolytic activity, ∼5–7% more functional active sites were quantified with Vela than with Imig (Table 1).
as §4, with “The ratios of intact enzyme with and without cathepsin D were used as indicators of the enzyme's proteolytic susceptibility.” left out

[9] = 5 or 15 U/kg/wk, week 4 or 8, compared to saline-injected controls

| Molecule | numbers of storage cells in lungs (CD68) [1] | saposin C concentration of maximum activation [2] | increase of activity with saposin C [2] | t1/2 of GCase activity ([3]; 25°C + h-serum) | t1/2 of GCase activity ([3]; 25°C + m-serum) | t1/2 of GCase activity ([3]; 25°C in CP, pH 7.4) | t1/2 of GCase activity ([3]; 37°C + h-serum) | t1/2 of GCase activity ([3]; 37°C + m-serum) | t1/2 of GCase activity ([3]; 37°C in CP, pH 7.4) | irreversible loss of activity by 2 h [3] | loss of activity by 4 h [3] | increase of activity with BPS [4] | BPS concentration of maximal activation [4] | GC lipid levels in lung [5] | decrease of GC levels in liver [5, 9] | reduction of GC levels in liver [5] | decrease of GC in lung (suggested trend) ([5]; 60 U/kg/wk, 8 wks) | decrease of GC levels in liver ([5]; 60 U/kg/wk, week 4) | reduction of GC levels in spleen ([5]; 4 wks) | reduction of GC levels in spleen ([5]; 8 wks) | other results |
| --- | --- | --- | --- | --- | --- | --- | --- | --- | --- | --- | --- | --- | --- | --- | --- | --- | --- | --- | --- | --- | --- |
| B1 | not different from saline control | 200 nM | 5- to 6 fold | 2.933 ± 0.0978 h | 3.235 ± 0.102 h | 1.977 ± 0.0318 h | 2.117 ± 0.169 h | 2.31 ± 0.0637 h | 1.82 ± 0.0025 h | > 50% | 70–85% | 15- to 17 fold | 0.5 µM | unchanged | 50–70% | ~66% | ~10% | ~85% | 10–15% | 20–30% | difference in cellular clearance compared to Imig ([1]; lungs, Gaucher cells, not significant): ~10%; reduction of GC levels and storage cell numbers in livers [5]: 60–95%; reduction of GC levels and storage cell numbers in spleens [5]: 10–30%; greater activity compared to Imig ([6]; 4MU-Glc and GC substrates): 6–10%; GCase activity, 4MU-Glc [6]: 1,030,480±2,692 nmole/h/mg; Km [6]: 1590 ± 200 µM; GCase activity, NBD-GC [7]: 1,321,057±67,237 nmole/h/mg; more functional active sites than Imig ([8]; DNPFG): 5–7%; Active sites, 2,4-DNPFG [8]: 97.4±0.6% |
| B2 | not different from saline control | 200 nM | 5- to 6 fold | 3.107 ± 0.106 h | 3.587 ± 0.253 h | 2.04 ± 0.129 h | 2.125 ± 0.169 h | 2.455 ± 0.124 h | 1.858 ± 0.0413 h | > 50% | 70–85% | 15- to 17 fold | 0.5 µM | unchanged | 50–70% | ~55% | ~10% | ~70% | 10–15% | 20–30% | reduction of GC levels and storage cell numbers in livers [5]: 60–95%; reduction of GC levels and storage cell numbers in spleens [5]: 10–30%; GCase activity, 4MU-Glc [6]: 966,000±8,467 nmole/h/mg; Km [6]: 1650 ± 250 µM; GCase activity, NBD-GC [7]: 1,191,610±56,390 nmole/h/mg; Active sites, 2,4-DNPFG [8]: 91.6±2.2% |
